Laboratory results reported in the supplement of paper PMC9170038.

System: K4 kissing-loop RNA reporter
Assay: apparent KD of K4 kissing-loop reporter; higher = weaker reporter binding
Conditions: Eterna round: R107; input ligand: arginine 13.2 mM
Protocol: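 RNA-MaP round R107: designed RNA switches with theophylline, tryptophan, arginine or FMN aptamers are transcribed on-chip within common flanks. They are titrated with a labelled K4 kissing-loop RNA reporter in RNA-MaP buffer (100 mM Tris pH 7.5, 80 mM KCl, 4 mM MgCl2), without ligand or with the indicated ligand. Median apparent KD per design.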
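Note: bound reporter read as fluorescence of individual clusters on recovered sequencing chips by microscopy, with normalized cluster intensities fitted with a binding model.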

Sequence	apparent KD of K4 kissing-loop reporter [nM]
UGCCGGGCUGUACGUUACUUAAAUCGCGAUACCAGCGAUACAAUCCGCCCUUGGCAGCGCAGUGAUGUUGCGCGGUCAUUACGGG [theeternabot_exclusion_KL_Theo_A_27]	90.5
UUAUAUUUUAUAUUUAGUAGAGCUCUAGCUCGAGGACCGGUACGGCCGCCACUCGAGUGAUGUUCGAGUGGGUGAGCUCUACAUU [AK3 EXC Tryptophan A]	95.7
UCCUAGGUUCGUCGGCGAAAGCCCUGCGAAGGAGCGUGCGAAAGCACAGGUAGGUCGCGCAGUGAUGUUGCACCUAGGUAAUAAA [#SwitchBubble 23 #K4Late]	672
UAGGUUUAAUCGGCCGCCACUAUCAGAGCGCCAGUGAUGUUGGAGUAACGAUCGUGGCGAGUUAAUAGGACCGGGAUUCAACACA [Velazaer]	141
AUGCGCGCGGCGGCCGCCACUCGCAUGAGAGUGAUGUUCUCGCCGUGCCCGUAAGGGUGCGGUGUGAGGACCGGGCCGGGCUGCG [#2 Same State - Tryptophan B Attempt #20 (HarryS)]	107
GUGCGUAAGUGAUGUUUACGUCAGCUCCGCAAGGAUAUCCUGAUUAGGAGAAGGUGCGGGAACUAAAGACGCUCGUUCUAGCAGG [theeternabot_exclusion_KL_FMN_A_33]	182

Same assay, conditions: Eterna round: R107; input ligand: none

Sequence	apparent KD of K4 kissing-loop reporter [nM]
UGUCAUUGGUCGGCCGCCACUAAAUAAAAGAGUGAUGUUCUUAAGACGGAUCGAAAGAUCUGUCAUAGGACCGGGACCGAUGACU [TrypBS 21 #SwitchBubble #StaticStem]	1080
AAACGUUGGUGCGAUACCAGCUGCUCGGAAACGAGCUUGCUGGAGUGAUGUUCCAGGAAAAGCCCUUGGCAGCGCACCGACGAAA [MAT - Same State Theophlline B - Mod of Eli - D27]	2040
UUUAGGAACUGAGGAUAUUCGAAGAAAUAUAGUGAUGUUAUAUAAGGAGGAGGAGGGAGGGAGGAAGGAGAAGGCAGAAGAGGAG [ExFMNB.E]	246
CCAUUCAGUUACGAUACCAGUCUAAUAUAUUUGAUCAAAACCCUCGCCGAGUGAUGUUCGGACCCUUGGCAGCGUCUGGGACAGG [xxcetmullin]	421
CCUAUCUCAUACGAUACCAGUGAUUAACCAGUGAUGUUGGAAUAACCAAGGAAUAUUUUUCACCCUUGGCAGCGUAUGGGAUAGG [Ex Theophylline B K4 26]	59.1
AAGUGUGUGGCGGCCGCCACUAGAAUCCAGUGAUGUUGGAGAUAUCACGUAAGUGAUAUCCACCAUAGGACCGGGCCAUAUAGAA [Same State - Tryptophan B (Freestyle 13)]	559
UAUAUGCAGUGAUGUUGCGGCACACUUCCGAAGGAUAUGUCCGGUGACAGAAGGUCGGUCCAUGGGACAUCACGUGUGCUUGAUG [theeternabot_exclusion_KL_FMN_A_15]	613
AAAAUAAAUCAGUGAUGUUGGUAUCUGGAUACCAGCGAUAAUAGUCGCCCUUGGCAGCCAUGGACGUACAAAAUAAGUACGUCCU [MatMod 19 - Jieux - Same State - Theophylline A]	183
UAUAAGCGCAGAGGAUAUACUAGCUUUCACUAGUGCAGUGAUGUUGCACUAGACCAGCUGUACAUAGUAGAAGGCUGCGUUCCUU [FMN B SS t1]	112
AUGGCACCUGCGGCCGCCACUCACUCCGGGCUGCUGGCCAGUGAUGUUGGUACGGCUGCCGGUUAGAGGACCGGGCAGGAGCUAA [Rienisdite]	107
GCCGUACGCAUGGAUACCAGCUAGACCGAGUGAUGUUCAGGUCUGAAUGCCGGUAAUAAGAGCCCUUGGCAGCCAUGCGUACGGC	358
GGAUAGGACACGGCCGCCACUACCGAGGAUACUCGAAACAUUUCCUCAGAUGAGUGAUGUUCAUCUAGGACCGGGUGUCCUAUCG [KL-XTryp-B19 #analogue]	118
UAAUAUCAACUUGUAGGAGUGAUGUUCCGCCGAGGACCGGUACGGCCGCCACUCGACAAAAUCUCAGUGUGGUACCUAGGAAUUU [theeternabot_exclusion_KL_Trp_A_24]	374
GAUAGGAAACUAUCAAAUCGGGAAACCGAUACCAGUAUGGAUUCAUACCCUUGGCAGCGGGAUUAUAAAAUAGGAGUGAUGUUCC [Theophylline A K4 16]	220
UGAUUUAACUGAAGGAGCGGCAAUUGAUAAGUAAAUAUAGUGAUGUUAUAUAAGAUAGAGAGCCAGGUAGGUCGCAGAGGUAUUU [ExArgB.N]	154
UAAUCACUCGAACUGCAAGUACGAGUGGAACGAGGACCGGUACGGCCGCCACUCGAUAACUUGCAGUGAUGUUGCAAGUAAGAAU [(T)''-(K)'-(T)'-(T1)-(T2)-(K1)-(K2)_Design7]	57.2
UUUUUGGUUUAGAGUGAUGUUCCUUGUUUUCGAGGACCGGUACGGCCGCCACUCGAAAAGAAAAGAAAAGAAAAGAGUGAUGUUU [BDazzled - #1 SS Tryptophan A]	362
UAACCGCAGAAAGAUACCAGUGAGUGAUGUUCCUCGAUCCUGUGGUUCAUUCUCUUUACCCACCCUUGGCAGCUUCAAAUGUGAC [theeternabot_exclusion_KL_Theo_B_4]	850
GCGUUACUGAAAGGAUAUGAUCAACAUAGUGGUCAGUGAUGUUGGCAGGCCUCGUGGCGAGGUAGAUCAGAAGGUUCAUUACGAC [theeternabot_sameState_KL_FMN_B_11]	553
CUAGCCGGGAAAGGAUAUACACACGCACAUAACGAGUGAUGUUCGUUAAUACCAACUUGGUUAACUGUAGAAGGUUCAUCGUCAC [theeternabot_sameState_KL_FMN_B_36]	803
